# Data: patent US20200383981
# System: wild-type human IDO1
substance,measurement,value
human Src Y530F,"tyrosine phosphorylation of human IDO1 Tyr249 (ITIM2), western blot of SW837 IDO1WT lysate",Expression of human Src Y530F in SW837 IDO1WT cells was shown to enhance tyrosine phosphorylation of human IDO1 Tyr249 (ITIM2)
